Experimental data reported in PMC8487046 (2021).

Molecular target: acetylated BSA (AcBSA) (bovine (from the name BSA), UniProt P02769 25-607, acetylated (lysyl acetylation); extent not stated)
Assay: SPR

Sequence of acetylated BSA (AcBSA) (P02769 25-607): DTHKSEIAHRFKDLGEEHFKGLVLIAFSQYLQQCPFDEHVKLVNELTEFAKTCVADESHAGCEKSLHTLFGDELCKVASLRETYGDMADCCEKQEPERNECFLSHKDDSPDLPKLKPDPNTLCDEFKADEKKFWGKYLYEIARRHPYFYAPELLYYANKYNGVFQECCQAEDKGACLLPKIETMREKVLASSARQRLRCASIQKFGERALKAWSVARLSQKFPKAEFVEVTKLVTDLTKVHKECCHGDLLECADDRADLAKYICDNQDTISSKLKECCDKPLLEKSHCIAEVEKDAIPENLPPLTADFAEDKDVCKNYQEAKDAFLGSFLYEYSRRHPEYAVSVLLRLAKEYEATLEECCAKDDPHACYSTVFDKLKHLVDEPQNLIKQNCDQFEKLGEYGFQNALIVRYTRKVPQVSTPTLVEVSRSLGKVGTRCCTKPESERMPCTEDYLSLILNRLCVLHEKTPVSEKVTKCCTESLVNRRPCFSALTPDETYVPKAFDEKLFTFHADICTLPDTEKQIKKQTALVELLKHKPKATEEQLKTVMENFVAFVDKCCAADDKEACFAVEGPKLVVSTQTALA

B1: SR‐F1(20‐421), SR‐F1 ectodomain (domain or fragment)
chain: SELDPKGQHVCVASSPSAELQCCAGWRQKDQECTIPICEGPDACQKDEVCVKPGLCRCKPGFFGAHCSSRCPGQYWGPDCRESCPCHPHGQCEPATGACQCQADRWGARCEFPCACGPHGRCDPATGVCHCEPGWWSSTCRRPCQCNTAAARCEQATGACVCKPGWWGRRCSFRCNCHGSPCEQDSGRCACRPGWWGPECQQQCECVRGRCSAASGECTCPPGFRGARCELPCPAGSHGVQCAHSCGRCKHNEPCSPDTGSCESCEPGWNGTQCQQPCLPGTFGESCEQQCPHCRHGEACEPDTGHCQRCDPGWLGPRCEDPCPTGTFGEDCGSTCPTCVQGSCDTVTGDCVCSAGYWGPSCNASCPAGFHGNNCSVPCECPEGLCHPVSGSCQPGSGSRDT
  Kd: 917 nM
